Data reported in patent publication US20230257479A1 (Genmab, published 2023).

How the values were obtained:
[1] = biological target: T1, full length human 5T4 (SEQ ID NO: 1) on cells (human, UniProt Q13641 32-420); assay: flow cytometry, HeLa cells, PE secondary [II)B]
T1 construct: Uniprot Q13641; residues 1-31 are the signal peptide; Used both for transfected HEK-293 cells and for 5T4-expressing human tumor cell lines
T1 sequence: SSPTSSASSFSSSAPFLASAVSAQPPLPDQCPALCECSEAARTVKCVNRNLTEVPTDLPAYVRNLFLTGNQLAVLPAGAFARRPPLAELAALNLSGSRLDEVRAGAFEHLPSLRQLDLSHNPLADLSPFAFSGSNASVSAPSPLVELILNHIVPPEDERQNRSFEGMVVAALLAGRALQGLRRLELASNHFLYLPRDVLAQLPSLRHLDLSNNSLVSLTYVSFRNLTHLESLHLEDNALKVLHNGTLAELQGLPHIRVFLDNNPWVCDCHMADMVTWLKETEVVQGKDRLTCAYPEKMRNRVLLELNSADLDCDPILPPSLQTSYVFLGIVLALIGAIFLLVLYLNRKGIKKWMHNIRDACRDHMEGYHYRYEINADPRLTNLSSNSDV
Description: (§1) Mono- and bivalent binding of 5T4 antibodies to HeLa cells was determined by flow cytometry. Cells were incubated with increasing concentrations of antibodies. After secondary labelling with Phycoerythrin (PE)-conjugated goat-anti-human IgG F(ab′)2, the mean fluorescence intensity (MFI) was determined by flow cytometry.
(§2) After washing twice in staining buffer, cells were incubated in 50 µL secondary antibody at 4° C. for 30 min. […] Next, cells were washed twice in staining buffer, re-suspended in 120 µL staining buffer and analyzed on a BD LSRFortessa FACS (BD Biosciences, USA). Binding curves were analyzed using non-linear regression (sigmoidal dose-response with variable slope) using GraphPad Prism V7.02 software (GraphPad Software, San Diego, CA, USA).

[2] = biological target: T1, full length human 5T4 (SEQ ID NO: 1) on …; assay: flow cytometry, HeLa cells, FITC secondary [I)C]
Description: as §2

[3] = biological target: T1, full length human 5T4 (SEQ ID NO: 1) on …; assay: flow cytometry, MDA-MB-231 cells, FITC secondary [I)C]
Description: Binding of CD3x5T4 bispecific and 5T4 monospecific antibodies to 5T4-positive human tumor cells. Mono- and bivalent binding of 5T4 antibodies to HeLa cells (left panels) or MDA-MB-231 cells (right panels) was determined by flow cytometry. Cells were incubated with increasing concentrations of antibodies. After secondary labelling with FITC-conjugated goat-anti-human IgG F(ab′)2, the MFI was determined by flow cytometry.
as §2

[4] = biological target: T1, full length human 5T4 (SEQ ID NO: 1) on …; assay: flow cytometry, MDA-MB-231 cells, PE secondary [III)B]
[5] = biological target: T1, full length human 5T4 (SEQ ID NO: 1) on …; assay: flow cytometry, HEK-293 cells transfected with human 5T4, PE secondary [II)B]
[6] = biological target: T1, full length human 5T4 (SEQ ID NO: 1) on …; assay: flow cytometry, HEK-293 cells transfected with human 5T4, FITC secondary [I)B]
Description: (§3) Experiments were performed in technical duplicate. After washing twice in staining buffer, cells were incubated in 50 µL secondary antibody at 4° C. for 30 min. […] Cells were washed twice in staining buffer, re-suspended in 30 µL staining buffer and analyzed on an iQue Screener (Intellicyt Corporation, USA). Binding curves were analyzed using non-linear regression (sigmoidal dose-response with variable slope) using GraphPad Prism V7.02 software (GraphPad Software, San Diego, CA, USA).

[7] = biological target: T2, full length cynomolgus monkey 5T4 on transfected HEK-293 cells (cynomolgus monkey, UniProt Q4R8Y9 35-420); assay: flow cytometry, HEK-293 cells transfected with cynomolgus monkey 5T4, PE secondary [II)B]
T2 construct: Uniprot Q4R8Y9; residues 1-34 are the signal peptide; also called cynomolgus 5T4
T2 sequence: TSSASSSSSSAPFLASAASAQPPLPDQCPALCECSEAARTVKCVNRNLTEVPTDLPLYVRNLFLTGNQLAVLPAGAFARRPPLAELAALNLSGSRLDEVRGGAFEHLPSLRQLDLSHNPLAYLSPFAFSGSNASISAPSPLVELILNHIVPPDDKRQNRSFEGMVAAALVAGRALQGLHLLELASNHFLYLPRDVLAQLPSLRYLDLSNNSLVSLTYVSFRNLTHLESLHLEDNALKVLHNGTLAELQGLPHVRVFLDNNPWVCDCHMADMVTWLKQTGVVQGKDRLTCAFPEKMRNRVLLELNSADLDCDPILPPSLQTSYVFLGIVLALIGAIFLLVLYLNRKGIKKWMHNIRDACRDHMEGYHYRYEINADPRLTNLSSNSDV

[8] = biological target: T2, full length cynomolgus monkey 5T4 on …; assay: flow cytometry, HEK-293 cells transfected with cynomolgus monkey 5T4, FITC secondary [I)B]
Description: as §3

[9] = biological target: T1, full length human 5T4 (SEQ ID NO: 1) on …; assay: flow cytometry, HeLa cells, PE secondary [II)G]
[10] = biological target: T2, full length cynomolgus monkey 5T4 on …; assay: flow cytometry, HEK-293 cells transfected with cynomolgus monkey 5T4, PE secondary [II)H]
[11] = biological target: T1, full length human 5T4 (SEQ ID NO: 1) on …; assay: flow cytometry, HeLa cells, PE secondary [II)D]
Description: as §1, §2

[12] = biological target: T1, full length human 5T4 (SEQ ID NO: 1) on …; assay: flow cytometry, MDA-MB-231 cells, PE secondary [III)D]
Description: Mono- and bivalent binding of 5T4 antibodies to MDA-MB-231 cells was determined by flow cytometry. Cells were incubated with increasing concentrations of antibodies. After secondary labelling with PE-conjugated goat-anti-human IgG F(ab′)2, the mean fluorescence intensity (MFI) was determined by flow cytometry.
as §2

[13] = biological target: T2, full length cynomolgus monkey 5T4 on …; assay: flow cytometry, HEK-293 cells transfected with cynomolgus monkey 5T4, PE secondary [II)D]

B1: bsIgG1-huCD3-H101G-FEALx5T4-226-FEAR (bispecific antibody)
heavy: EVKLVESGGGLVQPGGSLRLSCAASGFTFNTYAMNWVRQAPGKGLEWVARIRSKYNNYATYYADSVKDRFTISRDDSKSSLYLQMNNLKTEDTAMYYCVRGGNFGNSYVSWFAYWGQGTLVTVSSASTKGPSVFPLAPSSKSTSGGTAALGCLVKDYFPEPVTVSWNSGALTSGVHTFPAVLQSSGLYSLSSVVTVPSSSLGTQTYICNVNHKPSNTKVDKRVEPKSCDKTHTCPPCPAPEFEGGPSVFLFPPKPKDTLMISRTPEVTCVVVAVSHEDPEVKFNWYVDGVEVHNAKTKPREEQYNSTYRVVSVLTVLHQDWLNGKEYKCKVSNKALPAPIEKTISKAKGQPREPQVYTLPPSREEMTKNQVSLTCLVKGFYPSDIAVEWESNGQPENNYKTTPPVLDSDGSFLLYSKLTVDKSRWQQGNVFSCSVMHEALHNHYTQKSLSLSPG
light: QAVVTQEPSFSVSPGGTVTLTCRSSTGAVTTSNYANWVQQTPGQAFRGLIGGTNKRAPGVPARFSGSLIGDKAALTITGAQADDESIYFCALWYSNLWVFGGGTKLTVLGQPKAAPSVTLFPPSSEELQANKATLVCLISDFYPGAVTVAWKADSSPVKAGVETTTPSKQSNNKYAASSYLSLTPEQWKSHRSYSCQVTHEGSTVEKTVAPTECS
VH: QVQLQQWGAGLLKPSETLSLTCAVYGGSFSGYYWSWIRQPPGKGLEWIGEIDHSGSTNYNPSLKSRVTISVDTSKNQFSLKLSSVTAADTAVYYCAAWFGELWDYYYGMDVWGQGTTVTVSS
VL: EIVLTQSPATLSLSPGERATLSCRASQSVSSFLAWYQQKPGQAPRLLIYDASNRATGIPARFSGSGSGTDFTLTISSLEPEDFAVYYCQQRSNWPLTFGQGTRLEIK
notes: Fab-arm exchange product
EC50 (read off the curve) [1]: ~0.04 µg/mL | EC50 (read off the curve) [2]: ~0.02 µg/mL | EC50 (read off the curve) [3]: ~0.1 µg/mL | EC50 (read off the curve) [4]: ~0.04 µg/mL | EC50 (read off the curve) [5]: ~0.1 µg/mL | EC50 (read off the curve) [6]: ~0.2 µg/mL | EC50 (read off the curve) [7]: ~0.06 µg/mL | EC50 (read off the curve) [8]: ~0.1 µg/mL

B2: bsIgG1-huCD3-H101G-FEALx5T4-A1-FEAR (bispecific antibody)
heavy: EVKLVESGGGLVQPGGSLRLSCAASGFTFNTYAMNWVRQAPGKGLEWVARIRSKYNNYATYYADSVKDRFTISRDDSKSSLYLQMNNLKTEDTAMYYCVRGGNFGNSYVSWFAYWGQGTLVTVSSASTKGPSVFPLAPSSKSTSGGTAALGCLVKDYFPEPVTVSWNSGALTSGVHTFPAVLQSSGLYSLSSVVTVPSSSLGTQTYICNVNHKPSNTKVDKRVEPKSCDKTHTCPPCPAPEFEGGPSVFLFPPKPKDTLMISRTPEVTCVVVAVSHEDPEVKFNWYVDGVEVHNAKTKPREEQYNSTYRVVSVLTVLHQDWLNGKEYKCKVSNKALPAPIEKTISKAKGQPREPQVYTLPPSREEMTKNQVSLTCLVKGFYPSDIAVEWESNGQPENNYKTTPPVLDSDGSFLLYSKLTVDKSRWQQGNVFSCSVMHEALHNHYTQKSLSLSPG
light: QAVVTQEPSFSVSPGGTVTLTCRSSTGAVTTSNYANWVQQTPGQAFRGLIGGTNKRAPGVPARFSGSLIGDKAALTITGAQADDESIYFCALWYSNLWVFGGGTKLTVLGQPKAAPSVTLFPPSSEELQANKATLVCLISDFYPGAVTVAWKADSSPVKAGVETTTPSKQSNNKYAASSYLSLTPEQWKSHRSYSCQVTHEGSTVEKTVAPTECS
VH: QIQLVQSGPELKKPGETVKISCKASGYTFTNFGMNWVKQGPGEGLKWMGWINTNTGEPRYAEEFKGRFAFSLETTASTAYLQINNLKNEDTATYFCARDWDGAYFFDYWGQGTTLTVSS
VL: SIVMTQTPKFLLVSAGDRVTITCKASQSVSNDVAWYQQKPGQSPKLLINFATNRYTGVPNRFTGSGYGTDFTFTISTVQAEDLALYFCQQDYSSPWTFGGGTKLEIK
notes: Fab-arm exchange product
binding result [9]: binds | binding result [10]: binds

B3: IgG1-5T4-A1-FEAR (antibody, V domains shown)
VH: QIQLVQSGPELKKPGETVKISCKASGYTFTNFGMNWVKQGPGEGLKWMGWINTNTGEPRYAEEFKGRFAFSLETTASTAYLQINNLKNEDTATYFCARDWDGAYFFDYWGQGTTLTVSS
VL: SIVMTQTPKFLLVSAGDRVTITCKASQSVSNDVAWYQQKPGQSPKLLINFATNRYTGVPNRFTGSGYGTDFTFTISTVQAEDLALYFCQQDYSSPWTFGGGTKLEIK
notes: Based on A1 from Wyeth; IgG1 with L234F, L235E, D265A, K409R (FEAR)
binding result [9]: binds | EC50 (read off the curve) [10]: ~0.1 µg/mL

B4: bsIgG1-huCD3-H101G-FEALx5T4-106-FEAR (bispecific antibody)
heavy: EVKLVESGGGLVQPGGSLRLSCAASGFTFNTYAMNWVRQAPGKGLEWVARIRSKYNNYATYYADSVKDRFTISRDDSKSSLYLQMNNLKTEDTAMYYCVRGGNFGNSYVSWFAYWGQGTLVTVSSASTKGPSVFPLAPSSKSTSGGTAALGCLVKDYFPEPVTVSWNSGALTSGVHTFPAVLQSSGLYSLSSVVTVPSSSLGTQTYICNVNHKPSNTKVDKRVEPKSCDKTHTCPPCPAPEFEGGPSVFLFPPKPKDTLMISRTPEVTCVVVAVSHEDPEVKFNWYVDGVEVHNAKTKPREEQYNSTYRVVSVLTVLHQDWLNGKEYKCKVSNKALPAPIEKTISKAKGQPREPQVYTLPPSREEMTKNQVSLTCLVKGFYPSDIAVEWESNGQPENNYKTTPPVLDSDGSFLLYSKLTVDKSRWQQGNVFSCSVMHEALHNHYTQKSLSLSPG
light: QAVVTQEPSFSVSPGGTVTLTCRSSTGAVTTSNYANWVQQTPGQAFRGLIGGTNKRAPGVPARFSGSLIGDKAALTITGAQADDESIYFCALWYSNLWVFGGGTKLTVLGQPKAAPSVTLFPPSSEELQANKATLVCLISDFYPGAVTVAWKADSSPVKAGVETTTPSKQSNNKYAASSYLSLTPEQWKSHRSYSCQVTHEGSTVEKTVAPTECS
VH: EVQLVQSGAEVKKPGESLKISCKGSGYRFTSYWIGWVRQMPGKGLEWMGIIYPGDSDARYSPSFQGQVTISADKSISTAYLQWSSLKASDTGMYYCARSVLFDYWGQGTLVTVSS
VL: AIQLTQSPSSLSASVGDRVTITCRASQGISSALAWYQQKPGKAPKLLIYDVSNLESGVPSRFSGSGSGTDFTLTISSLQPEDFATYYCQQFNSYPHTFGQGTKLEIK
notes: Fab-arm exchange product
EC50 (read off the curve) [11]: ~0.1 µg/mL | EC50 (read off the curve) [12]: ~0.1 µg/mL | binding result [13]: binds
